Assay results: publication PMC6593972, “Two-Step Activation Mechanism of the ClpB Disaggregase for Sequential Substrate Threading by the Main ATPase Motor” (Cell Reports, 2019)

Biological target: the molecule itself
Test: cryo-EM structure; ClpB hexamer with a 20-fold molar excess of casein, 10 min at room temperature in 25 mM Tris-HCl pH 7.4, 25 mM KCl, 10 mM MgCl2, 2 mM ATPγS, 1 mM DTT; single-particle cryo-EM

B1: ClpB-DWB-K476C (natural protein)
chain: not shown
notes: ClpB, bacterial disaggregase, with K476C (M-domain) and the double Walker B mutations E279A/E678A; ATPase-deficient variant used to trap substrate for cryo-EM in the presence of ATPγS; also called ClpB-K476C-DWB; ClpB-K476C/E279A/E678A; source: E. coli ΔclpB::kan cells, purified (Ni-IDA, size exclusion chromatography Superdex S200)
B1 was tested, and the “stoichiometry N” value was 6.
